B1: ADI-41419 (antibody, V domains shown)
VH: EVQLVESGGGLVQPGRSLRLSCAASGFTFDDYAMHWVRQAPGKGLEWVSGISWNSGSVGYSDSVKGRFTISRDNAKSSLYLQMNNLRAEDTALYYCARDMAHTQDYFDTSEYDSWGQGTLVTVSS
VL: QPVLTQPASVSGSPGQSITISCTGTSSDIGAYNYVSWYQQHPGKAPKLVVYEVNNRPSGISNRFSGSKSGNTASLTISGLQAEDEADYYCSSYTVSATLVFGGGTKLTVL
notes: IgG1
B2: ADI-21079 (antibody, V domains shown)
VH: EVQLLESGGGLVKPGGSLRLSCAASGFTFSDYYMSWIRQAPGKGLEWVSNISGGSTYTNYADSVKGRFTISRDNAKNSLYLQMNSLRAEDTAVYYCAREAYGSGNYYNPNWLDPWGQGTLVTVSS
VL: QSVLTQPPSVSGAPGQRVTISCTGSSSNIGAGYDVHWYQQLPGTAPKLLIYGNRNRPSGVPDRFSGSKSGTSASLAITGLQAEDEADYYCQSYDSSLSGSVFGGGTKLTVL
B3: ADI-21081 (antibody, V domains shown)
VH: EVQLLESGGGLVKPGGSLRLSCAASRFAFSNYYMTWIRQAPGKGLEWISNISGGSTFTNYADSVKGRFTISRDNAKNSVHLQMNSLRAEDTAVYYCVREASVAAGTPEGFDIWGQGTMVTVSS
VL: QSVLTQPPSVSGAPGQRVIISCTGSSSNIGAGYDVNWYQQLPGTAPKLLMYGNRNRASGVPDRFSGSKSGTSASLAITGLQAEDEADYYCHSYDSSLGGSVFGGGTKLTVL
notes: also called Ab 326
B4: ADI-21086 (antibody, V domains shown)
VH: EVQLVETGGGLVKPGGSLRLSCAASPFAFSNYYMSWIRQAPGKGLEWISNISGGSTFTNYADSVKGRFTISRDNARNSLYLLMNNLRTEDTAVYYCAREASVAAGTPEGFDVWGQGTTVTVSS
VL: QSVVTQPPSVSGAPGQRVTISCTGSSSNIGAGYDVNWYQQFPGTAPKLLIYGNRNRPSGVPARFSGSKSGASASLAITGLQAEDEADYYCHSYDSGLSGSVFGGGTKLTVL
B5: ADI-21082 (antibody, V domains shown)
VH: EVQLVESGGGLVKPGGSLKLSCVASGLKFSSYSMNWVRQAPGKGLEWVSSVSAGSSYTNYADSVKGRFTISRDNAKNSLYLQMNSLRVDDTAVYYCATERCSGGSCYLHGFDPWGQGTTVTVSS
VL: QSVLTQPPSVSGAPGQRVTISCTGSSSNIGAGYDVHWYQQLPGTAPKLLIFDNIIRPSGVPDRFSGSKSGTSASLAITGLQADDEADYYCQSYDKSGDYVFGTGTKVTVL
B6: ADI-21072 (antibody, V domains shown)
VH: QVQLVQSGGGLVKPGGSLRLSCEASGFNFRSYHMSWVRQAPGKGLEWVSSITAGSSYINYADSVKGRFTISRDNAKNSVFLQMNSLSAEDTAVYYCAREGLNMGVGGTWFDPWGQGTLVTVSS
VL: QAVVTQEPSVSGAPGQRVTISCTGSSSNIGAGYDVHWYQQLPGTAPKLLIYGNNNRPSGVPDRFSGSKSATSASLAITGLQADDEADYYCQSYDRSLSGSWVFGTGTKVTVL
B7: ADI-21077 (antibody, V domains shown)
VH: QVQLVESGGGLVKPGGSLRLSCVVSGFTFRDYYMSWIRQAPGKGLEWISYISPSSTYTNYADSVRGRFTISRDNAENSLYLQMNSLRAEDTAVYYCARVNIAATGAGGVFLDYWGQGTTVTVSS
VL: QPVLTQPPSVSGAPGQRVTISCAGSSSNIGAGYDVHWYQQLPGTAPKLLIYGNINRPSGVPDRFSGSKSGTSASLAITGLQAEDEADYYCQSYDSSLSGSYVFGTGTKVTVL
B8: ADI-41416 (antibody, V domains shown)
VH: EVQLVESGGGLVKPGGSLRLSCAASGFKFSSYTMNWVRQAPGKGLEWVSSITGGSSFINYADSVKGRFTISRDNAKNSLYLQMVSLRAEDTAVYYCARDLSSHITIFGAVSDYWGRGTTVTVSS
VL: QSVLTQPPSVSGAPGQRVTISCTGSSSNIGAGYDAHWFQQLPGSAPKLLIYANTNRPSGVPDRFSGSKSGTSASLAITGLQAEDEADYYCQSYDSTLSVVFGGGTKLTVL
notes: IgG1
B9: ADI-41352 (antibody, V domains shown)
VH: EVQLVESGGGLVQPGGSLRLSCAASGFTFSSYRMNWVRQAPGKGLEWVSYIDISSSTIYYADSVKGRFTISRDNAKNSLYLQMNSLRAEDTAVYYCARDQLVWEPLIRNHYYYAMDVWGQGTTVTVSS
VL: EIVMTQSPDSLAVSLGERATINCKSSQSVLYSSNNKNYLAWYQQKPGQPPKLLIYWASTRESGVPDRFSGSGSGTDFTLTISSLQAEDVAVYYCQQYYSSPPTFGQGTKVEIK
notes: IgG1
B10: ADI-21075 (antibody, V domains shown)
VH: EVQLVESGGGLVKPGGSLRLSCAASGFSFSNYYMSWVRQAPGKGLEWISYISGGSTYANLADSVKGRFTISRDNTKNSMYLQMTSLRPDDTAVYYCARIHGTHGPFYFDYWGQGTLVTVSS
VL: QSVLTQPPSVSGAPGQRVTISCTGSSSNIGAGYDVHWYQQLPGTAPKLLIHANSNRPSGVPDRFSGSKSGTSASLAITGLQAEDEADYYCQSYDNSLNAYYVFGTGTKLTVL
notes: also called Ab 320
B11: ADI-21089 (antibody, V domains shown)
VH: EVQLLESGGGLVKPGGSLRLSCVASGFRFTSYSMNWVRQAPGKGLEWVSSISASSSYVDYADSLKGRFTISRDNAQNSLFLQMNSLRAEDTAVYYCARDYYDSGNYHSPFPMDVWGQGTTVTVSS
VL: QSVLTQPPSVSGAPGQRVTISCTGSRSNIGAGYDVHWYQQLPGTAPKLLIYGNNKRPSGVPDRFSGSKSGTSASLAITGLQAEDEADYYCQSYDSGPIFGGGTKVTVL
B12: ADI-41356 (antibody, V domains shown)
VH: QVQLVQSGAEVKKPGASVKVSCKASGYTFTNYDINWVRQATGQGLEWMGWMNRNNGNTGYARKFQGRVTMTRNTSISTAYMELSSLRSEDTAVYYCARGGDFYAMDVWGQGTTVTVSS
VL: SYELTQPPSVSVSPGQTASITCSGDKLGDKYASWYQQKPGQSPVLVIYQDTKRPSGVPERFSGSNSGNTATLTISGTQAVDEADYYCQVWDGSIAFGGGTKVTVL
notes: IgG1
B13: ADI-41401 (antibody, V domains shown)
VH: EVQLLESGGGLVHPGRSLRLSCAASGFTFGDYAMHWVRQAPGKGLEWVSGISWNSDTIEYADSVKGRFTISRDNAKNSLYLQMNSLRAEDTALYYCAKDFGSSWEAYFDYWGQGTLVTVSS
VL: DIVLTQSPSYLSASVGDRVTITCRASQSISTYLNWYQQKPGKAPKLLISAASSLQSGVTSRFSGSGSGTDFSLTISSLQPEDFATYYCQQSYSTALTFGGGTKVEIK
notes: IgG1
B14: ADI-41828 (antibody, V domains shown)
VH: EVQLVESGGGLVQPGGSLRLSCADSDFTFSTYSMNWVRQAPGKGLEWISYITGRSSAIYYADSVKGRFTISRDNAKNSLFLQMNSLRAEDTAVYYCTTFMAGYSFGHGDAFDIWGQGTTVTVSS
VL: SYELTQPPSVSVAPGQTARITCGGNNIGSKSVHWYQQKPGQAPVLVVYDDSDRPSGIPERFSGSNSGNTATLTISRVEAGDEADYYCQVWNSNSDHPHWVFGGGTQLTVL
B15: ADI-41398 (antibody, V domains shown)
VH: EVQLLESGAEVKKPGASVKVSCKASGYTFTNYGISWVRQAPGQGLEWMGWISAYNGNTNYAQKLQGRVTMTTDTSTSTAYMELRSLRSDDTAVYYCARDGGVIAAATLGYWGQGTLVTVSS
VL: EIVLTQSPLSLPVTLGQPASISCRSSQSLVYSDGNTYLSWFQQRPGQSPRRLIYKISNRDSGVPNRFSGSGSGTDFTLKISRVEAEDVGIYYCMQGIYWPPTFGQGTKVEIK
notes: IgG1; also called Ab 691
B16: ADI-41377 (antibody, V domains shown)
VH: QVQLQQSGPGLVKPSQTLSLTCAISGDSVSSDSATWNWIRQSPSRGLEWLGRAYYRSKWYYDYAPSVKSRLTINPDTSKNQFSLQLTSVTPQDTAVYFCARDLPPLEYFDGSGYYFLDHWGQGTLVTVSS
VL: SYELTQPPSVSVAPGQTARLSCGGHNIGSKSVQWYQQKPDQAPVLVVYDDHDRPSGIPDRFSGSNSGDMATLTISRVEAGDEADYYCQVCESGRDPMVFGGGTKVTVL
notes: IgG1; also called Ab 674
B17: ADI-21064 (antibody, V domains shown)
VH: EVQLVESGGEVKKPGASVKVSCKASGYIFSNHGVSWVRQAPGQGLEWMGWISAYNGNAIYAQNLQGRVTLTTDTSTSTAYMELTSLTSDDTAIYYCARESGATAAAVMDYWGQGTLVTVSS
VL: DIVLTQTPLSLPVILGQPASISCRSSQSLVYSDGNTYLTWFQQRPGQSPRRLIYKVSNRDSGVPDRFSGSGSDTDFTLKISRVEAEDVGVYYCMQGIDWPRTFGQGTKVDIK

Experiments:
[1] = molecular target: RSV prefusion F (preF), DS-Cav1 (respiratory syncytial virus, UniProt P03420 26-513); assay: BLI, IgG on sensor, 100 nM antigen
[2] = molecular target: RSV fusion glycoprotein (RSV F) on RSV-A2 virus (respiratory syncytial virus, UniProt P03420 26-574); assay: cell-based or functional assay
[3] = molecular target: RSV postfusion F (postF), F deltaFP (respiratory syncytial virus, UniProt P03420 26-513); assay: BLI, IgG on sensor
[4] = molecular target: RSV F on recombinant mKate-RSV A2 virus (Respiratory syncytial virus A2, UniProt P03420 26-574); assay: cell-based or functional assay
[5] = molecular target: RSV F on recombinant mKate-RSV B 18537 virus (Respiratory syncytial virus B 18537, UniProt P13843 26-574); assay: cell-based or functional assay
[6] = molecular target: T1, RSV postfusion F, subtype B (postF trimer) (Respiratory syncytial virus subtype B, UniProt P13843 26-513); assay: BLI, IgG apparent affinity
T1 construct: also called Postfusion subtype B

[7] = molecular target: RSV F on RSV subtype A virus (RSV-A2) (Respiratory Syncytial Virus, subtype A, …, UniProt P03420 26-574); assay: cell-based or functional assay
[8] = molecular target: RSV prefusion F (preF), DS-Cav1 stabilized trimer, subtype A (Respiratory Syncytial Virus, subtype A, UniProt P03420 26-513); assay: BLI, IgG on anti-human IgG sensors, 100 nM antigen, apparent KD

Row | Binder | Kd [1] [nM] | Neutralization IC50 (RSV subtype A) [2] [µg/mL] | binding result [3] | Neut IC50 (ug/ml) subtype A [4] [µg/mL] | Neut IC50 (ug/ml) subtype B [5] [µg/mL] | binding result [6] | other results
1 | B1 | 0.305 | 0.01 | no binding (tested: 100 nM antigen) |  |  |  | 
2 | B2 |  |  |  | 0.2 | 0.29 | no binding | 
3 | B3 |  |  |  | 0.1 | 0.32 | no binding | 
4 | B4 |  |  |  | 0.11 | 0.47 | no binding | 
5 | B5 |  |  |  | 0.09 | 0.25 |  | Kd [6]: 6.17 nM
6 | B6 |  |  |  | 0.04 | 0.33 | no binding | 
7 | B7 |  |  |  | 0.06 | 0.06 | no binding | 
8 | B8 | 0.444 | 0.05 | no binding (tested: 100 nM antigen) |  |  |  | 
9 | B9 | 3.36 | > 25 | no binding (tested: 100 nM antigen) |  |  |  | 
10 | B10 |  |  |  | 0.03 | 0.48 | no binding | 
11 | B11 |  |  |  | 0.27 | 0.17 |  | Kd [6]: 3.34 nM
12 | B12 | 0.725 | 0.115 | no binding (tested: 100 nM antigen) |  |  |  | 
13 | B13 | 3.22 | > 25 | no binding (tested: 100 nM antigen) |  |  |  | 
14 | B14 |  |  |  |  |  |  | Neutralization IC50 (RSV subtype A) [7]: 5.53 µg/mL; Kd [8]: 0.241 nM
15 | B15 | 0.6 | 0.17 | no binding (tested: 100 nM antigen) |  |  |  | 
16 | B16 | 1.74 | 0.24 | no binding (tested: 100 nM antigen) |  |  |  | 
17 | B17 |  |  |  | 0.03 | 0.12 | no binding | 

From patent publication US20260258115A1 (MAPP BIOPHARMACEUTICAL, published 2026)
